Measurements published in the RNAGym collection of RNA variant scans (doi:10.1073/pnas.2313332121).
This sample holds only a part of the variants without activity.

B1: TPR 5TU (parent)
chain: GGAUCUUCUCGAUCUAACAAAAAAGACAAAUCUGCCACAAAGCUUGAGAGCAUCUUCGGAUGCAGAGGCGGCAGCCUUCGGUGGCGCGAUAGCGCCAACGUUCUCAACUAUGACACGCAAAACGCGUGCUCCGUUGAAUGGAGUUUAUCAUG

Variants of: B1
Assay: polymerase ribozyme fitness, log enrichment relative to wild type (log ratio); higher = more active; in vitro selection for triplet polymerase activity
How it was run: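 Mutant libraries of each subunit of a heterodimeric triplet polymerase ribozyme were built by PCR and transcribed. Each library went through one round of in vitro selection in triplicate: annealing with biotinylated primer, partner subunit and triplets, frozen incubation at −7 °C, gel excision of extended constructs, streptavidin-bead capture and RT-PCR. Input and output libraries were Illumina-sequenced; only genotypes with ≥10 input reads and ≥1 read per output were kept. Fitness is log2(genotype enrichment/wild-type enrichment), using inverse-variance-weighted replicate averages.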

Row | Variant | polymerase ribozyme fitness (log ratio)
1 | C8A C10G C18U A21U C54A C87U A120G | ≤ -4.2
2 | U6G G50U C85U C116U | 0.202
3 | U6G U31G G84U | -0.345
4 | U7G A20U U53A G88U C96A A113U C114U A122U U139A A142U | ≤ -4.2
5 | U7G U15A G58U G70C A91G | ≤ -4.2
6 | U7A A29C C85U C87U G143C A150G | ≤ -4.2
7 | U7C A12C A24C C96U A120C | ≤ -4.2
8 | U6G G65U G71C G94A C103G A122G | ≤ -4.2
9 | U7A G94C U111C U135A A138U | -3.87
10 | U7C A20C A89G C96A U111C C118U | ≤ -4.2
11 | U7A U44A | ≤ -4.2
12 | U7C C85U U145A | -2.42
13 | U7G A40U A66C G81C A120G U146G | ≤ -4.2
14 | C8G A20G U44G G48U G84U G128U U144A | ≤ -4.2
15 | C8A U56A A66C G94A A98U | ≤ -4.2
16 | U7C A16U A49G G92C | ≤ -4.2
17 | U6G U9C A12C U45A C76G A91C C96G | ≤ -4.2
18 | U7A A23C C36A U56A A91U C132G | -3.78
19 | C8A A142C | -4.11
20 | U6G G81C A91G | -2.46
21 | U7G G42A U44A G68C A91U G117A U135A | ≤ -4.2

Row | Variant | polymerase ribozyme fitness (log ratio)
22 | U7C C8A C32U A91U A121G U134C | ≤ -4.2
23 | U7G U13A A17U A20C G50A A122C G141U U151G | ≤ -4.2
24 | C8A G11A C63U G83C U130G G152C | ≤ -4.2
25 | U7G A19C A30U G71C G84A C96G C118G | ≤ -4.2
26 | U6G U53A | -0.949
27 | U7C C27U A49C A52G C79A C87G C93G C96A A97U C99U C108U A120U | -4.18
28 | C8A A21C | -3.76
29 | U7G A47C A49U G86U C99U | ≤ -4.2
30 | C8G A20C G67C G68C A113U | ≤ -4.2
31 | C8A A19G G62A G67C C93A A97U G112U A142G U148A | ≤ -4.2
32 | C8A U55A A66C G67U U77A C99U C108U G133C G136A | ≤ -4.2
33 | U7G G11C A29C U82G C95U U109G | ≤ -4.2
34 | U7G U15A G59C G124C G136A | -3.25
35 | U7C U56A G94A A98G | -3.41
36 | U7A A121U A138G | ≤ -4.2
37 | C8A G50U | -3.79
38 | U7C A21C A24C G62C C76A G133C | ≤ -4.2
39 | U7G C35A A40G U77C A150U | ≤ -4.2
40 | C8G A16U C79G G141A | ≤ -4.2
41 | U7G A64G C87A C105A U144G | ≤ -4.2
42 | C8G A29C G42C | ≤ -4.2

Row | Variant | polymerase ribozyme fitness (log ratio)
43 | U7G A60U G83C C85A C105G A137G | ≤ -4.2
44 | U7C C35U | -2.29
45 | C8A G11A G50C U82A G83C | ≤ -4.2
46 | U7A A22G C72A A122U C131A | ≤ -4.2
47 | U6G U78A G84U A91C C108A A121C | ≤ -4.2
48 | C8A A26G A37C G62A A120G G140C G152A | -4.13
49 | U6G U78G C93U A98G A142C | -3.99
50 | U7A A26G U31C G50U A73C G86A U104G | ≤ -4.2
51 | C8A A47G A49C G59C A60U G84A C125G | ≤ -4.2
52 | C8A A26G G59U A89G C93G C95U C108U C132A | ≤ -4.2
53 | U7C C27U C38U C54G A64G C75U C85A C96U C105G C114U | ≤ -4.2
54 | C8A A22C C27U U44C C51U C79A C93G C95G C105G | ≤ -4.2
55 | C8G A52C U55C G65A G83U C105U G143U | ≤ -4.2
56 | C8A A52C C87A | ≤ -4.2
57 | C8G A22C A24U C69U A73U C93U | ≤ -4.2
58 | U7G C85U | -2.79
59 | U7G C85A | -3.43
60 | U7A C8U A73G G81A G83A C96A A119U G124C | ≤ -4.2
61 | U7C A23G U82G G83A U146G A150G G152C | ≤ -4.2
62 | C8A A41G | -4.12
63 | U6G U55G G92A | -3.71

Row | Variant | polymerase ribozyme fitness (log ratio)
64 | U7C G48C C85U | -3.27
65 | C8G C10U C51A G80C C95A U102G G124U A137C | ≤ -4.2
66 | U7A C14G U45A G50A C57A G71C A110U G112U C125G C132U | ≤ -4.2
67 | U7C A20U C96A C103U U109C G152U | -3.42
68 | U6G G86U G152U | -4.12
69 | U6G U13G C57G | -2.26
70 | C8A C57U G67C C95A A97G U151A | ≤ -4.2
71 | U7G A26C U31G U55A G86C G126U | ≤ -4.2
72 | C8A A30U A40U G48C G84A A113U C132A | ≤ -4.2
73 | U7A A28U G46C G50A C95G C103G C129A U144C | ≤ -4.2
74 | C8A C27U U44G A49C C72G C79A G92A G143U | ≤ -4.2
75 | C8A A41C A66U C69A U77C G83C G126U U130G G141C G152C | ≤ -4.2
76 | U7C G50U G140U | ≤ -4.2
77 | U7A G71A C96G | ≤ -4.2
78 | U6G G128U | -3.77
79 | U7C U56A A91U A106U C132U | -3.92
80 | U7G A20C A40C G48U A64U A89U G92U U101C C132A | ≤ -4.2
81 | U6G G59A G92A C95A C105U | -4.19
82 | U7G C76A C85G C95A A121U | ≤ -4.2
83 | C8A A49G C76A C93A C103G C105A U127C | ≤ -4.2
84 | C8G A16U A20U C79U C85U A115C | ≤ -4.2
